Target: TET2 (UniProt Q6N021)
Assay: co-IP of transfected HNF4α with TET2
Conditions: reference: wild type; sites S313

binding against the reference: stronger
Substance: HNF4α (from UniProt P41235) S313A

Reference: PMC12133150
